Measurements: the supplement of paper PMC7125110
± gives the standard error. This sample holds only a part of the variants without activity.

B1: glmS ribozyme (parent)
chain: AUAAAAGCGCCAGAACUACAGAAAUGUAGUUGACGAGGAGGAGGUUUAUCGAAUUUUCGGCGGAUGCCUCCAAA

Variants of: B1
Test: self-cleavage kobs at 640 uM GlcN6P; higher = faster cleavage; RNA array
Settings: with glucosamine-6-phosphate
Procedure, shortened: (§1)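 E. coli RNA polymerase transcribed barcoded ribozyme variants in situ on sequenced MiSeq chips, which were tracked via a hybridised Cy3 probe at 37 °C. Tiles were imaged over ~14 h after glucosamine-6-phosphate (40 μM to 10 mM) in HEPES/KCl/Mg(OAc)2 buffer was flowed in. Normalised per-tile medians were fit to one- or two-exponential decays for kobs, and kcat and KM came from weighted Michaelis–Menten fits.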

Variant | self-cleavage kobs at 640 uM GlcN6P
AUAAAAGCGCCAGAACUACAGAAAUGUAGUUGACGAGGAGGAGGUUUAUGGUAUUUUCGGCGGAUGCCUUCAAA [C50G A52U C70U] | 0.000121 ± 5e-05 s⁻¹
AUAAAGGCGCUAGAACUACAGAAAUGUAGUUGACGAGGAGGAGGUUUAUCUAAUUUUCGGCGGAUGCCUCCAAA [A6G C11U G51U] | < 1e-05 s⁻¹
AUAAAAGCGCCACACCUACAGAAAUGUAGUUGACGAGGAGGAGGUUUAUCGAAUUUUCGGUGGUUGACUCCAAA [G13C A15C C61U A64U C67A] | < 1e-05 s⁻¹
AUAAAAGCGCCAGAACUACAGAAAUGUAGUUUACGAGGAGGGGGUUUAUCGAAUUUUCGGCGGAUUCUUCCAAA [G32U A42G G66U C68U] | < 1e-05 s⁻¹
AUAAAAGCGCCAGAACUACAGAAAUGUAAUUGACGAGGAGGACGUUUAUCGCAUUUUCGGUGGAUGCCUCCAAA [G29A G43C A52C C61U] | < 1e-05 s⁻¹
AUAAAAGCGCCAGAACUACAGAAAUGUAGUUGACGAGGACGAUGUUUAUCGAAUCUUCGGCGGAUGCCUCCAAA [G40C G43U U55C] | < 1e-05 s⁻¹
AUAAAAGCGCCAGAACUACAGAAAUGUAGGUGACGAGGUGGAGGUUUAUCGAAUUUUCGGCGGACGCCUCCAAA [U30G A39U U65C] | 0.000103 ± 3.8e-05 s⁻¹
AUAAAAGCGCCAGAACUACAGAAAUGUAGUUGACGACGAGGAGGUUUAUCGAAUUUUCGGCCCAUGUCUCCAAA [G37C G62C G63C C67U] | < 1e-05 s⁻¹
AUAAAAGCGCCAGACGUACAGAAAUGUAGUUGACGAGGAGGAUGUUUAUCGAAUUCUCGGCGGUUGCAUCCAAA [A15C C16G G43U U56C A64U C68A] | < 1e-05 s⁻¹
AUAAAAGCGCCAAAACUACAGAAAUGUAGUUGACGAGGAGGAGCUUUAUCGAAUUUUCGGCGGAUGCCUCCAAA [G13A G44C] | < 1e-05 s⁻¹
AUAAAAGCGCCAGAACUACAGAAAUGUAGUUGACGAGGCGGAGGUUUAUCGAAUGUUCGGCGGAUGUCUCCAAA [A39C U55G C67U] | 7.28e-05 ± 1.4e-05 s⁻¹
AUAAAAGCGCCAGAACUACAGAAAUGUAGUCGACGAGUCGGAUGUUUAUCGAAUUUUCGGCAGAUGCCGCCAAA [U31C G38U A39C G43U G62A U69G] | < 1e-05 s⁻¹
AUAAAAGUGCCAGAACUACAGAAAUGUAGUGGAUGAGGAGGAGGUUAAUCGAAUUUUCGGCGGAUGCCUCCAAA [C8U U31G C34U U47A] | < 1e-05 s⁻¹
AUAAAAGCGCCAUAACUACAGAAAUGUAGUGGACGAGGAGGAGGUUUGUCGUAUUUUCGGCGGAUGCCUCCAAA [G13U U31G A48G A52U] | < 1e-05 s⁻¹
AUAAAAGCGCCUGACCUACAGAAAUGUAGUUGACGAGGAGGAGGUUUAUCGAAUUUUCGGCGGAUGCCUCAAAA [A12U A15C C71A] | 0.000661 ± 0.00015 s⁻¹
AUAAAAGCGCCAGAACUCCAGAAAUGUAGUUGACUAGGAGGAGGUUUAUCGAAUUUACGGCGGAUGCCUCCAAA [A18C G35U U57A] | < 1e-05 s⁻¹
AUAAAAGCGCCAGACCUACAGAAAUGUAGUUGACGAAGAGGGGGUUUAUCGAAUUUUCGGCGGAUGCCUCCAAA [A15C G37A A42G] | 8.69e-05 ± 3e-05 s⁻¹
AUAAAAGCGCCAGAAAUACAGAAAUGUAGUUGACGAGGAGGAGGUUUAUCGAAUUUUCGGCGGAUGCCUUAAAA [C16A C70U C71A] | 0.00012 ± 4.3e-05 s⁻¹
AUAAAUGCGCCAGAACUACAGAAAUGUAGUUGACGACAAGGAGGUUUAUCGAAUUUUCGGCGGAUGCCUCAAAA [A6U G37C G38A C71A] | < 1e-05 s⁻¹
AUAAAAGCGCCAGAACUACAGAAAUGUAAUUGACGAGGAGGAGGUUUAUCGCAUUUGCGGCGGGUGCCUCAAAA [G29A A52C U57G A64G C71A] | < 1e-05 s⁻¹
AUAAAAGUGCCAGAACUACAGAAAUGUAGUUGACGAGGUGGAGGUUUAUCGAAUUUUCCGCGGAUGCCUCCAAA [C8U A39U G59C] | < 1e-05 s⁻¹
AUAAAAGCGCCAGAACUACAGAAAUGUAGUUGAUGAGGAGGAGCUUUAUCGAAUUUUCGGCGUCUGCCUCCAAA [C34U G44C G63U A64C] | < 1e-05 s⁻¹
AUAAAAGCGCCAGAACUACAGAAAUGUAGUUGACGAGGAGGCGGUUUAUCGAAUUUUCGGGGGAUGCCUACAAA [A42C C61G C70A] | < 1e-05 s⁻¹
AUAAAAGCGCCAGAACUACAGAAAUGUAGUUGACGAGGAGGAGGUUUAUAUAAUUUUCGGCGGAUGCCUCCAAA [C50A G51U] | < 1e-05 s⁻¹
AUAAAAGCGCCAGAACUACAGAAAUGUAGUUGACGAGGAGUAGGUUUAUCGAUUUUUCGGCGGAUGCCGCCAAA [G41U A53U U69G] | < 1e-05 s⁻¹
AUAAAAUCACCAGAACUACAGAAAUGUAGUUGACGAGUAGGAGGUUUAUCGAAUUUUCGGCGGAUGCCUCCAAA [G7U G9A G38U] | < 1e-05 s⁻¹
AUAAAAGCUCCAGAACUACAGAAAUGUAGUUGACGAGGAGGAGGUUUAUCUAAUUUUCGGCGGAUGCCUCUAAA [G9U G51U C71U] | < 1e-05 s⁻¹
AUAAAAGCGCCAGAAAUACAGAAAUGUAGUUGACGAGGAGGCGGUUUAUCGAAUUUUCGGCGGAUGCCUCUAAA [C16A A42C C71U] | < 1e-05 s⁻¹

Variants of: B1
Test: self-cleavage kobs at 2500 uM GlcN6P; higher = faster cleavage; RNA array
Settings: with glucosamine-6-phosphate
Procedure, shortened: as §1

Variant | self-cleavage kobs at 2500 uM GlcN6P
AUAAAAGCGCCAGAACUACAGAAAUGUAAUUGACGAGGAGGACGUUUAUCGCAUUUUCGGUGGAUGCCUCCAAA [G29A G43C A52C C61U] | < 1e-05 s⁻¹
AUAAAAGCGCCAGAACUACAGAAAUGUAGUUGACGAGGACGAUGUUUAUCGAAUCUUCGGCGGAUGCCUCCAAA [G40C G43U U55C] | < 1e-05 s⁻¹
AUAAAAGCGCCUGACCUACAGAAAUGUAGUUGACGAGGAGGAGGUUUAUCGAAUUUUCGGCGGAUGCCUCAAAA [A12U A15C C71A] | 0.0015 ± 0.00053 s⁻¹
AUAAAAGCGCCAGACCUACAGAAAUGUAGUUGACGAAGAGGGGGUUUAUCGAAUUUUCGGCGGAUGCCUCCAAA [A15C G37A A42G] | 0.000171 ± 4.6e-05 s⁻¹
AUAAAAGCGCCAGAACUACAGAAAUGUAGUUGACGAGGAGGCGGUUUAUCGAAUUUUCGGGGGAUGCCUACAAA [A42C C61G C70A] | < 1e-05 s⁻¹
AUAAAAGCGCCAGAAAUACAGAAAUGUAGUUGACGAGGAGGCGGUUUAUCGAAUUUUCGGCGGAUGCCUCUAAA [C16A A42C C71U] | < 1e-05 s⁻¹

Variants of: B1
Test: self-cleavage kobs at 10000 uM GlcN6P; higher = faster cleavage; RNA array
Settings: with glucosamine-6-phosphate
Procedure, shortened: as §1

Variant | self-cleavage kobs at 10000 uM GlcN6P
AUAAAAGCGCCAGAACUACAGAAAUGUAGGUGACGAGGUGGAGGUUUAUCGAAUUUUCGGCGGACGCCUCCAAA [U30G A39U U65C] | 0.000419 ± 6.3e-05 s⁻¹
AUAAAAGCGCCAGAACUACAGAAAUGUAGUUGACGAGGAGGCGGUUUAUCGAAUUUUCGGGGGAUGCCUACAAA [A42C C61G C70A] | < 1e-05 s⁻¹
AUAAAAGCGCCAGAACUACAGAAAUGUAGUUGACGAGGAGGAGGUUUAUAUAAUUUUCGGCGGAUGCCUCCAAA [C50A G51U] | < 1e-05 s⁻¹
